For one assay, the target named is T1, SemDΔAPH_(67-382) (Chlamydia pneumoniae).
T1 construct: SemD of Chlamydia pneumoniae (382 aa), N-terminally truncated up to and including the APH motif; residues 67-382 (G67-E382); from synthetic semD DNA codon optimised for E. coli; Monomer in solution by SAXS; also called SemDΔAPHHis; source: E. coli BL21 (DE3), purified (Ni-NTA Agarose, SEC); not shown: 10xHis, C-terminal, kept
The assay can be described thus: SEC-SAXS; Superdex200 increase 10/300 GL, PBS pH 8.5 + 3 % glycerol, 20 °C; 8 mg/ml SemDΔAPH, 10 mg/ml BR-GBD, 8 mg/ml SemDΔAPH + BR-GBD, 3.3 mg/l SemDΔAPH + SNX9-SH3. Particulars: both partners purified.

Assay [1] deals with T2, BR-GBD fused to GFP (BR-GBD_(GFP-His)) (Rattus norvegicus, UniProt O08816 142-273).
T2 construct: amplified from GFP-N-WASP (Addgene #47406), in pDS94; source: E. coli BL21 (DE3), purified (Ni-NTA Agarose); not shown: GFP, C-terminal, kept; 10xHis, C-terminal, kept
T2 sequence (O08816 142-273): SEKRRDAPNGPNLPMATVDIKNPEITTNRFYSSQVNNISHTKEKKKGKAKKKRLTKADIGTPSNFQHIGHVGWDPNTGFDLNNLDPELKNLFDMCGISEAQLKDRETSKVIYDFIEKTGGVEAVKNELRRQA
The assay can be described thus: pull-down; GFP-Trap agarose, BR-GBD_(GFP-His) or GFP alone as bait, equimolar test protein, 5 min RT then 30 min 4 °C, washed 6x with 10 mM Tris-HCl, 200 mM NaCl, pH 8.5; immunoblot, Elution:FT ratio normalised to the bait. Particulars: both partners purified. Background: Immunoblotting shows a protein as a band on a membrane.

Results on two molecules are retold here after article PMC11344771, “The Chlamydia pneumoniae effector SemD exploits its host’s endocytic machinery by structural and functional mimicry” (Nature Communications, 2024).

What is called stoichiometry N is a count of units in the complex or per binding partner.

B1: SNX9-SH3 (domain or fragment)
chain: MATKARVMYDFAAEPGNNELTVNEGEIITITNPDVGGGWLEGRNIKGERGLVPTDYVEILPS
As for B1, the “stoichiometry N” value with SemDΔAPH_(67-382) was 1.

B2: Cdc42 bound to a non-hydrolysable GTP analogue (Cdc42_(GppNHp)) (natural protein)
chain: not shown
notes: human CDC42 in pGEX-4T-1; also called Cdc42_(mGppNHp); active Cdc42; source: E. coli Rosetta, purified (Glutathione sepharose, thrombin cleavage), loaded with GppNHp or mGppNHp
With B2, the “normalised Elution:FT ratio” value in assay [1] is ~100%.
